{"source": "patent US20040018580A1", "about": "“Synthetic substrates for prostasin” (priority 2002, published 2004)", "key": {"prostasin-mPBP complex": {"target": "T1, prostasin-mPBP complex (Homo sapiens, UniProt Q16651)", "T1 construct": "made in house; mPBP: purified from mouse seminal vesicle fluid", "experiment": "Inhibition of complex formation between prostasin and mPBP (western blot)", "assay_type": "binding", "description": "(§1) The procedures were performed according to Chen et al. Briefly, purified recombinant prostasin was incubated with samples from each purification step or the final purified mPBP at 37 degrees C. for 1 hour or for various times as indicated. The binding reaction was stopped by the addition of SDS sample buffer (1×SDS sample buffer=62.5 mM Tris-Hcl at Ph 6.8, 2% (v/v) glycerol, 2% SDS (w/v) and 2% Beta-mercaptoethanol). The reaction mixtures were then boiled for 5 min, and resolved in 10% SDS-polyacrylamide gels. The resolved proteins were then transferred to nitrocellulose membranes, and analyzed with either a prostasin antibody or the mPBP antibody. Signals were detected using an ECL detection procedure with the WestPico reagents (Pierce, Rockford, Ill.) following the manufacturer's protocol. The membrane was then exposed to X-ray film (Midwest Scientific, St. Louis, Mo.) The prostasin antibody was used at 1:2,000 dilution, the mPBP antibody was used at 1:10,000 dilution, and the secondary antibody (goat anti-rabbit IgG, Sigma-Aldrich) was used at 1:10,000 dilution. All antibodies were diluted in 5% non-fat milk in TBS-T (TBS-T=20 mM Tris-Hcl at pH 7.6, 0.14M NaCl and 0.1% Tween-20).\n(§2) The purified mPBP was tested for its biochemical activities using the prostasin binding assay. Complex formation between mPBP and purified prostasin was analyzed by western blotting using the mPBP antibody and a prostasin antibody. […] The complex was detected after 30 seconds of incubation and progressed during the incubation time course (60 minutes). […] The complex formation of prostasin and mPBP was used as a control (FIG. 4C, lane 2).\n(§3) It has been known that PN-1 can form complexes with various serine proteases, including thrombin. […] We also tested if the complex is pH dependent because prostasins's optimum pH is 9.0. […] We further tested if heparin may have a different effect on the complex formation between prostasin-mPBP versus on that between thrombin-mPBP."}, "prostasin [1]": {"target": "T2, prostasin (Homo sapiens, UniProt Q16651)", "T2 sequence (Q16651 33-343)": "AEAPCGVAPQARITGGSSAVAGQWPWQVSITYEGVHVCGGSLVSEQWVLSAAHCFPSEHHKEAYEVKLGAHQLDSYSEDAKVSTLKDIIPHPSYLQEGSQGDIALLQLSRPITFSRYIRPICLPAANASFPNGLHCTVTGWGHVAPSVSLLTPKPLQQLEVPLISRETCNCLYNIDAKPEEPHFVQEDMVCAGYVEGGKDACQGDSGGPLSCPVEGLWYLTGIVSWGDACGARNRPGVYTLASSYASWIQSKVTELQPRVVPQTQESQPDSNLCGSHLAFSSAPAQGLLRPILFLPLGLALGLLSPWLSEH", "experiment": "Complex formation of recombinant GST-PN-1 with recombinant prostasin (immunoblot)", "assay_type": "binding", "parameters": "made in house", "conditions": "for complex formation of GST-PN-1 fusion protein with prostasin: 0.5 micrograms recombinant prostasin, 37 degrees C., 60 minutes", "description": "To establish if mPBP is indeed protease nexin-1, mouse and human protease nexin-1 (PN-1) cDNA were cloned into the pGEX-6P-1 expression vector. The recombinant protein products have the schistosomal glutathione-S-transferase (GST) fused to t he N-terminus of the PN-1. The GST fusion proteins were affinity-purified using glutathione-conjugated agarose-beads. For each type of recombinant protein, cleared supernatant of cell lysate from one liter of culture was incubated with 1 ml of […] glutathione-beads. The beads were eluted with 1 ml of fresh 10 mM glutathione in 50 mM Tris-Hcl, pH 8.0. Twenty microliters of the eluent were incubated with 0.5 micrograms of recombinant prostasin at 37 degrees C. for 60 minutes in the absence or presence of aprotinin. Both the GST-mPN-1 (FIG. 8, lane 1 alone at 64 kDa) and the GST-hPN-1 (FIG. 8, lanes 2 and 5). […] An immunoreactive band at 30 kDa and two other minor immunoreactive bands at 42 kDa and 60 kDa were likely the products of non-specific degradation of the recombinant PN-1, since no protease inhibitors were added in the cell lysate during purification."}, "thrombin-mPBP complex": {"target": "T3, thrombin-mPBP complex (Homo sapiens, UniProt P00734)", "T3 construct": "mPBP: purified from mouse seminal vesicle fluid", "experiment": "Effect of heparin on complex formation between thrombin and mPBP", "assay_type": "binding", "conditions": "heparin at 0.25 unit/reaction, FIG. 6B", "source_text": "as §3"}, "prostasin [2]": {"target": "T2, prostasin", "experiment": "Enzymatic assay with QAR-AMC substrate (residual activity of prostasin)", "assay_type": "biochemical", "parameters": "made in house", "description": "Recombinant human prostasin was purified as described in Chen et al. A synthetic substrate, N-t-Boc-Gln-Ala-Arg-7-amido-4-methyl coumarin (QAR-AMC) was purchased from Sigma-Aldrich. The purified mPBP (concentration range 0-0.4 micromolar) was incubated with prostasin (0.8 micromolar) for 30 mins at 37 degrees C. The binding reaction mixture (20 microliters) was then added to 80 microliters of […] Tris-HCL) pH 8.0/0.1% bovine serum albumin containing the QAR-AMC substrate (final concentration: 100 micromolar) in 96-well microtiter plates (Costar 3903, Cambridge, Mass.). The velocity of substrate hydrolysis was measured using a Wallac 1420 Victor mulitlabel counter at wavelength 355 nm and wavelength 460 nm. The residual activity of prostasin (velocity of the inhibited enzyme reaction/velocity of the uninhibited enzyme reaction) as plotted versus the mPBP concentration.\nQAR-AMC was used as a substrate for prostasin to test the inhibitory activity of the purified mPBP. Pprostasin (0.8 micromolar) was incubated with 0, 0.05, 0.1, 0.2 or 0.4 micromolar mPBP at 37 degress C. for 30 mins. The reaction mixture was then to the assay buffer containing a final concentration of 100 micromolar QAR-AMC substrate."}, "[3]": {"target": "T4, purified recombinant prostasin (Homo sapiens, UniProt Q16651)", "T4 construct": "made in house", "T4 sequence (Q16651 33-343)": "as above", "experiment": "Prostasin-binding assay (complex formation, western blot)", "description": "as §1, §2"}, "thrombin [4]": {"target": "T5, thrombin (Homo sapiens, UniProt P00734)", "experiment": "Complex formation between thrombin and mPBP", "assay_type": "binding", "source_text": "as §3"}, "prostasin [5]": {"target": "T2, prostasin", "experiment": "Membrane-overlay zymography of prostasin activity", "assay_type": "biochemical"}, "thrombin [6]": {"target": "T5, thrombin", "conditions": "cited from earlier work"}, "factor Xa": {"system": "factor Xa", "conditions": "cited from earlier work"}, "[7]": {"conditions": "binding conditions of increasing pH"}}, "data": [{"molecule": "O=S(=O)(F)Cc1ccccc1", "note": "[PMSF]", "values": [{"measurement": "effect on prostasin-mPBP complex formation", "setting": "prostasin-mPBP complex; FIG. 4C", "result": "inhibited"}]}, {"molecule": "aprotinin [reference compound]", "values": [{"measurement": "effect on prostasin-mPBP complex formation", "setting": "prostasin-mPBP complex; FIG. 4C", "result": "inhibited"}, {"measurement": "effect on GST-PN-1/prostasin complex formation", "setting": "prostasin [1]; in the presence of aprotinin, FIG. 8 lanes 3 and 6", "result": "inhibited"}]}, {"molecule": "heparin", "values": [{"measurement": "effect on prostasin-mPBP complex formation", "setting": "prostasin-mPBP complex; FIG. 4C", "result": "inhibited"}, {"measurement": "effect on prostasin-mPBP complex formation", "setting": "prostasin-mPBP complex; heparin at 0.25 unit/reaction, FIG. 6B", "result": "completely abolished"}, {"measurement": "effect on thrombin-mPBP complex formation", "setting": "thrombin-mPBP complex", "result": "not between thrombin-PMP"}, {"measurement": "effect on prostasin inhibition by mPBP", "setting": "prostasin [2]; pre-incubation of mPBP and heparin, QAR-AMC substrate", "result": "able to prevent prostasin inhibition by mPBP"}]}, {"molecule": "GST-mPN-1: recombinant mouse PN-1 with glutathione-S-transferase fused to the N-terminus (protein, left off: a dimerising Fc or GST, recombinant mouse PN-1 with glutathione-S-transferase fused to the N-terminus) SQFNSLSLEELGSNTGIQVFNQIIKSRPHENVVVSPHGIASILGMLQLGADGKTKKQLSTVMRYNVNGVGKVLKKINKAIVSKKNKDIVTVANAVFLRNGFKMEVPFAVRNKDVFQCEVQNVNFQDPASASESINFWVKNETRGMIDNLLSPNLIDGALTRLVLVNAVYFKGLWKSRFQPESTKKRTFVAGDGKSYQVPMLAQLSVFRSGSTRTPNGLWYNFIELPYHGESISMLIALPTESSTPLSAIIPHITTKTIDSWMNTMVPKRMQLVLPKFTAVAQTDLKEPLKALGITEMFEPSKANFTKITRSESLHVSHILQKAKIEVSEDGTKASAATTAILIARSSPPWFIVDRPFLFSIRHNPTGAILFLGQVNKP", "values": [{"measurement": "complex formation of GST-PN-1 fusion protein with prostasin", "setting": "prostasin [1]", "result": "form a 100 kDa complex"}]}, {"molecule": "mPBP: mouse prostasin-binding protein purified from mouse seminal vesicle fluid, 45 kDa; identified as the serpin protease nexin-1 (protein) SQFNSLSLEELGSNTGIQVFNQIIKSRPHENVVVSPHGIASILGMLQLGADGKTKKQLSTVMRYNVNGVGKVLKKINKAIVSKKNKDIVTVANAVFLRNGFKMEVPFAVRNKDVFQCEVQNVNFQDPASASESINFWVKNETRGMIDNLLSPNLIDGALTRLVLVNAVYFKGLWKSRFQPESTKKRTFVAGDGKSYQVPMLAQLSVFRSGSTRTPNGLWYNFIELPYHGESISMLIALPTESSTPLSAIIPHITTKTIDSWMNTMVPKRMQLVLPKFTAVAQTDLKEPLKALGITEMFEPSKANFTKITRSESLHVSHILQKAKIEVSEDGTKASAATTAILIARSSPPWFIVDRPFLFSIRHNPTGAILFLGQVNKP", "values": [{"measurement": "pH dependence of complex formation of mPBP and prostasin", "setting": "[3]; [7]", "result": "increased with higher pH"}, {"measurement": "complex formation with prostasin", "setting": "[3]; purified mPBP, western blot", "result": "formed a complex with prostasin"}, {"measurement": "incubation time after which the prostasin-mPBP complex was detected", "setting": "[3]; time course up to 60 minutes, 37 degrees C.", "result": 30, "unit": "s"}, {"measurement": "pH dependence of complex formation of mPBP and thrombin", "setting": "thrombin [4]; [7]", "result": "somewhat decreased with increasing pH"}, {"measurement": "complex formation with thrombin", "setting": "thrombin [4]; purified mPBP", "result": "formed a complex with prostasin as well as thrombin"}, {"measurement": "inhibition of prostasin's activity by membrane-overlay zymography", "setting": "prostasin [5]", "result": "inhibits prostasin's activity"}, {"measurement": "inhibition of prostasin's activity", "setting": "prostasin [2]; prostasin 0.8 micromolar with 0-0.4 micromolar mPBP, 37 degrees C., 30 mins, 100 micromolar QAR-AMC", "result": "inhibited in a dose dependent manner"}]}, {"molecule": "PN-1: protease nexin-1, a serine protease inhibitor (serpin) (protein) SQFNSLSLEELGSNTGIQVFNQIIKSRPHENVVVSPHGIASILGMLQLGADGKTKKQLSTVMRYNVNGVGKVLKKINKAIVSKKNKDIVTVANAVFLRNGFKMEVPFAVRNKDVFQCEVQNVNFQDPASASESINFWVKNETRGMIDNLLSPNLIDGALTRLVLVNAVYFKGLWKSRFQPESTKKRTFVAGDGKSYQVPMLAQLSVFRSGSTRTPNGLWYNFIELPYHGESISMLIALPTESSTPLSAIIPHITTKTIDSWMNTMVPKRMQLVLPKFTAVAQTDLKEPLKALGITEMFEPSKANFTKITRSESLHVSHILQKAKIEVSEDGTKASAATTAILIARSSPPWFIVDRPFLFSIRHNPTGAILFLGQVNKP", "values": [{"measurement": "inhibitory activity of PN-1 to thrombin in the presence of heparin", "setting": "thrombin [6]", "result": "enhanced"}, {"measurement": "inhibitory activity of PN-1 to factor Xa in the presence of heparin", "setting": "factor Xa", "result": "enhanced"}]}, {"molecule": "GST-hPN-1: recombinant human PN-1 with glutathione-S-transferase fused to the N-terminus (protein, left off: a dimerising Fc or GST, recombinant human PN-1 with glutathione-S-transferase fused to the N-terminus) SHFNPLSLEELGSNTGIQVFNQIVKSRPHDNIVISPHGIASVLGMLQLGADGRTKKQLAMVMRYGVNGVGKILKKINKAIVSKKNKDIVTVANAVFVKNASEIEVPFVTRNKDVFQCEVRNVNFEDPASACDSINAWVKNETRDMIDNLLSPDLIDGVLTRLVLVNAVYFKGLWKSRFQPENTKKRTFVAADGKSYQVPMLAQLSVFRCGSTSAPNDLWYNFIELPYHGESISMLIALPTESSTPLSAIIPHISTKTIDSWMSIMVPKRVQVILPKFTAVAQTDLKEPLKVLGITDMFDSSKANFAKITTGSENLHVSHILQKAKIEVSEDGTKASAATTAILIARSSPPWFIVDRPFLFFIRHNPTGAVLFMGQINKP", "values": [{"measurement": "complex formation of GST-PN-1 fusion protein with prostasin", "setting": "prostasin [1]", "result": "form a 100 kDa complex"}]}]}
